Assay results as given in patent publication US10799605B2 (3B PHARMACEUTICALS GMBH, priority 2014, dated 2020).

Target: T1, CCR1 (h) (Homo sapiens (Human), UniProt P32246)
T1 sequence (P32246 whole entry, looked up): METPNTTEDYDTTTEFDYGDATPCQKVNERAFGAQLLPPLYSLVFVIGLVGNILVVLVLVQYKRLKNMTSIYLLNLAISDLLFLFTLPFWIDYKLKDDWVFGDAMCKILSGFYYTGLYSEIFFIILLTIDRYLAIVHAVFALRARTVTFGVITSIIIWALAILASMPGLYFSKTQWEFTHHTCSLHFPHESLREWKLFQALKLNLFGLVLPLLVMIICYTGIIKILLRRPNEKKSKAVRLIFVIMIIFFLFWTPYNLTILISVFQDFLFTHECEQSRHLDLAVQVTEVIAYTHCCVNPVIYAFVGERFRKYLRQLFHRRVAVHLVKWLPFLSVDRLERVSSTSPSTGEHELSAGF
Experiment: ExpresSProfile: C-C chemokine receptor type 1, agonist radioligand
Type: binding
Conditions: Reference Compound

MIP-1alpha
nH Ref: 1.1
